Measurements published in paper PMC4431990, “Functional and expression analyses of two kinds of betaine aldehyde dehydrogenases in a glycinebetaine-hyperaccumulating graminaceous halophyte, Leymus chinensis” (SpringerPlus, 2015).

B1: LcBADH1 (Leymus chinensis) (protein)
chain: MAAPPAIPRRGLFIGGGWREPTLGRRIPVINPATEDTIGDIPAATVEDVELAVAAARSAFLLDGGSRWSRASGATRAKYLNAIAAKIKEKISYLALLETVDSGKPKDEAVADMDDVAACFEYYAGLAEALDGKQHAPISLPMEEFKTYVLKEPIGVVGLITPWNYPLLMATWKVAPALAAGCTAVLKPSELASLTCLELGAICEEIGLPSGVLNIITGLGADAGAPIASHPHVDKIAFTGSTATSKTIMTAAAQMVKPVSLELGGKSPLVIFDDVADIDKAVEWAMFGCFFNGGQVCSATSRLLLREKIAERFLDRLVEWAKNIKISDPLEEGCRLGSVVSKGQYEKIKKFISTARSEGATILHGGDRPKHLGKGFFIEPTIITDVSTSMQIWREEVFGPVICVKVFKTESEAIELANDTHYGLAGGVISDDLERCERIAKVIHSGIVWINCSQPTLVQAPWGGNKQSGFGRELGEWGLENYLSVKQVTRYCKDELYGWYQRPSKL
notes: approx 54 kDa
B2: LcBADH2 (Leymus chinensis) (protein)
chain: MASPAIPQRQLFIDGEWRAPALGRRLPVINPTTEASIGEIPSGTSEDVDAAVAAARAALKRNRGRDWSRAPGAVRAKYLRAIAAKMIERKADLARLEALDCGKPLDEAAWDMDDVAGCFEFFAGHAEALDKRQNAAVSLPENFKCHLKKEPIGVVSLITPWNYPLLMATWKVAPALAAGCTAVLKPSELASVTCLELADVCKEVGLPPGVLNVVTGLGPEAGAPLSSHPDVDKVAFTGSYATGQKIMVAAAPTVKAVTLELGGKSPIVVFDDVDIDKAVEWTLFGCFWTNGQICSATSRLLIHKNIAKEFVDRMVAWSKNIKVSDPLEEGCRLGPVVSEGQYEKIKKFISNAKSEGATILTGGVRPKHMEKGFFIEPTIITDINTSMEIWREEVFGPVLCVKEFSTEEEAIELANDTHYGLAGAVISGDRERCQRLAEEIDAGCIWVNCSQPCFCQAPWGGNKRSGFGRELGEGGIDNYLSIKQVTEYTSDAPWGWYKAPAN
notes: approx 54 kDa

Key:
[1] = substrate: C[N+](C)(C)CC=O; assay: purified protein; conditions: 50 mM HEPES-KOH pH 8.0, 500 μM NAD+
[2] = substrate: NC(=O)c1ccc[n+]([C@@H]2O[C@H](COP(=O)(O)OP(=O)(O)OC[C@H]3O[C@@H](n4cnc5c(N)ncnc54)[C@H](O)[C@@H]3O)[C@@H](O)[C@H]2O)c1; assay: spectrophotometric aldehyde dehydrogenase assay (NADH formation); type: biochemical, Leymus chinensis; conditions: 50 mM HEPES-KOH pH 8.0, 5 mM betaine aldehyde
Description: (§1) spectrophotometric aldehyde dehydrogenase assay (NADH formation) on LcBADH1

[3] = substrate: NCCC=O; assay: as above; type: biochemical, Leymus chinensis; conditions: 50 mM HEPES-KOH pH 8.0, 500 μM NAD+
Description: as §1

[4] = substrate: C[N+](C)(C)CCC=O; assay: as above; type: biochemical, Leymus chinensis; conditions: 50 mM HEPES-KOH pH 8.0, 500 μM NAD+
Description: as §1

[5] = substrate: NCCCC=O; assay: as above; type: biochemical, Leymus chinensis; conditions: 50 mM HEPES-KOH pH 8.0, 500 μM NAD+
Description: as §1

[6] = substrate: C[N+](C)(C)CCCC=O; assay: as above; type: biochemical, Leymus chinensis; conditions: 50 mM HEPES-KOH pH 8.0, 500 μM NAD+
Description: as §1

[7] = substrate: NC(=O)c1ccc[n+]([C@@H]2O[C@H](COP(=O)(O)OP(=O)(O)OC[C@H]3O[C@@H](n4cnc5c(N)ncnc54)[C@H](OP(=O)(O)O)[C@@H]3O)[C@@H](O)[C@H]2O)c1; assay: as above; type: biochemical, Leymus chinensis; conditions: 50 mM HEPES-KOH pH 8.0, 200 μM betaine aldehyde
[8] = substrate: NC(=O)c1ccc[n+]([C@@H]2O[C@H](COP(=O)(O)OP(=O)(O)OC[C@H]3O[C@@H](n4cnc5c(N)ncnc54)[C@H](O)[C@@H]3O)[C@@H](O)[C@H]2O)c1; assay: as above; type: biochemical, Leymus chinensis; conditions: 50 mM HEPES-KOH pH 8.0, 200 μM betaine aldehyde
Description: (§2) spectrophotometric aldehyde dehydrogenase assay (NADH formation) on LcBADH2

[9] = substrate: NCCC=O; assay: as above; type: biochemical, Leymus chinensis; conditions: 50 mM HEPES-KOH pH 8.0, 500 μM NAD+; remark: listed apart in the source
Description: as §2

[10] = substrate: C[N+](C)(C)CCC=O; assay: as above; type: biochemical, Leymus chinensis; conditions: 50 mM HEPES-KOH pH 8.0, 500 μM NAD+; remark: listed apart in the source
Description: as §2

[11] = substrate: NCCCC=O; assay: as above; type: biochemical, Leymus chinensis; conditions: 50 mM HEPES-KOH pH 8.0, 500 μM NAD+; remark: listed apart in the source
Description: as §2

[12] = substrate: C[N+](C)(C)CCCC=O; assay: as above; type: biochemical, Leymus chinensis; conditions: 50 mM HEPES-KOH pH 8.0, 500 μM NAD+; remark: listed apart in the source
Description: as §2

Protein	Km [1] [µM]	Km [2] [µM]	Km [3] [µM]	Km [4] [µM]	Km [5] [µM]	Km [6] [µM]	Vmax [1] [µmol/min/mg]	Km [7] [µM]	Km [8] [µM]	Vmax [8] [µmol/min/mg]	Km [9] [µM]	Vmax [9] [µmol/min/mg]	Km [10] [µM]	Vmax [10] [µmol/min/mg]	Km [11] [µM]	Vmax [11] [µmol/min/mg]	Km [12] [µM]	Vmax [12] [µmol/min/mg]
B1	27300 ± 7000	15.6 ± 5.70	27.4 ± 6.30	762 ± 175	48.1 ± 12.6	56.5 ± 17.0	–	–	–	–	–	–	–	–	–	–	–	–
B2	109 ± 10.0	–	–	–	–	–	1.59	3680 ± 725	7.66 ± 0.60	1.36	4.53 ± 0.81	2.16	91.4 ± 9.60	1.01	1.96 ± 0.30	1.29	22.1 ± 1.50	1.33
